Test results from US7026443.

B1: HPV16 E1 305 … (peptide)
peptide: MMIEPPKLR
modifications: not checked
B2: HPV16 E1 403 … (peptide)
peptide: KDCATMCRH
modifications: not checked
B3: HPV16 E1 454 … (peptide)
peptide: MSFLTALKR
modifications: not checked
B4: HPV16 E1 222 … (peptide)
peptide: LVRPFKSNK
modifications: not checked
B5: HPV16 E1 277 … (peptide)
peptide: LLVRYKCGK
modifications: not checked
B6: HPV16 E1 403 … (peptide)
peptide: KDCATMCRHY
modifications: not checked
B7: HPV16 E1 216 … (peptide)
peptide: GVSFSELVR
modifications: not checked
B8: … (HPV16 E6, position 23, 9 amino acids) (peptide)
peptide: CTELQTTIH
modifications: not checked
B9: … (HPV16 E1, position 421, 9 amino acids) (peptide)
peptide: SMSQWIKYR
modifications: not checked
B10: HPV18 E6 43 EVFEFAFK (peptide)
peptide: EVFEFAFK
modifications: not checked
B11: HPV18 E1 284-292 peptide … (peptide)
peptide: ALLRYKCGK
modifications: not checked
B12: HPV18 E6 101 … (peptide)
peptide: LLIRCLRCQK
modifications: not checked
B13: … (HPV16 E6, position 93, 9 amino acids) (peptide)
peptide: TTLEQQYNK
modifications: not checked
B14: HPV16 E1 405 … (peptide)
peptide: CATMCRHYK
modifications: not checked
B15: HPV16 E1 69 … (peptide)
peptide: ALFTAQEAK
modifications: not checked
B16: HPV18 E1 460-468 peptide … (peptide)
peptide: FITFLGALK
modifications: not checked
B17: HPV18 E6 83 … (peptide)
peptide: DSVYGDTLEK
modifications: not checked
B18: … (HPV16 E6, position 107, 9 amino acids) (peptide)
peptide: LIRCINCQK
modifications: not checked
B19: HPV18 E6 68 … (peptide)
peptide: CIDFYSRIR
modifications: not checked
B20: HPV18 E1 312 … (peptide)
peptide: MLIQPPKLR
modifications: not checked
B21: HPV18 E1 peptide … (position 322, 9 amino acids) (peptide)
peptide: SVAALYWYR
modifications: not checked
B22: … (HPV16 E6, position 106, 10 amino acids) (peptide)
peptide: LLIRCINCQK
modifications: not checked
B23: HPV16 E1 386 … (peptide)
peptide: NSNASAFLK
modifications: not checked
B24: HPV18 E1 428 … (peptide)
peptide: NMSQWIRFR
modifications: not checked
B25: … (HPV16 E1, position 419, 9 amino acids) (peptide)
peptide: QMSMSQWIK
modifications: not checked
B26: HPV18 E1 229 … (peptide)
peptide: LVRNFKSDK
modifications: not checked
B27: … (HPV16 E6, position 33, 9 amino acids) (peptide)
peptide: IILECVYCK
modifications: not checked
B28: … (HPV16 E6, position 75, 10 amino acids) (peptide)
peptide: KFYSKISEYR
modifications: not checked
B29: … (HPV16 E6, position 32, 10 amino acids) (peptide)
peptide: DIILECVYCK
modifications: not checked
B30: HPV18 E6 102 … (peptide)
peptide: LIRCLRCQK
modifications: not checked
B31: HPV18 E1 412-420 peptide … (peptide)
peptide: CATMCKHYR
modifications: not checked
B32: HPV18 E6 27 … (peptide)
peptide: DIEITCVYCK
modifications: not checked
B33: HPV16 E1 406 … (peptide)
peptide: ATMCRHYKR
modifications: not checked
B34: … (HPV16 E6, position 37, 10 amino acids) (peptide)
peptide: CVYCKQQLLR
modifications: not checked
B35: HPV16 E1 453 … (peptide)
peptide: FMSFLTALK
modifications: not checked
B36: … (HPV16 E6, position 31, 9 amino acids) (peptide)
peptide: HDIILECVY
modifications: not checked
B37: EVYDFAFR (HPV16 E6, position 48, 8 amino acids) (peptide)
peptide: EVYDFAFR
modifications: not checked
B38: HPV18 E1 393 … (peptide)
peptide: NSNAAAFLK
modifications: not checked
B39: HPV18 E1 426 … (peptide)
peptide: QMNMSQWIR
modifications: not checked
B40: HPV16 E1 404 … (peptide)
peptide: DCATMCRHY
modifications: not checked
B41: … (HPV16 E6, position 92, 10 amino acids) (peptide)
peptide: GTTLEQQYNK
modifications: not checked
B42: … (HPV16 E1, position 315, 9 amino acids) (peptide)
peptide: TAAALYWYK
modifications: not checked
B43: … (HPV16 E6, position 75, 9 amino acids) (peptide)
peptide: KFYSKISEY
modifications: not checked

molecular target: HLA-A*0301 (human); conditions: not given

First: B1
Second: B3
The binding affinity ratio (IC50 of standard peptide / IC50 of test peptide) of the first is lower: 0.001 for the first, 0.087 for the second.

First: B4
Second: B5
The binding affinity ratio (IC50 of standard peptide / IC50 of test peptide) of the first is higher: 0.07 for the first, 0.0043 for the second.

Going from B2 to B6, the binding affinity ratio (IC50 of standard peptide / IC50 of test peptide) (ratio to standard peptide) falls from 0.0011 to 0.0005.

With B7 the binding affinity ratio (IC50 of standard peptide / IC50 of test peptide) (ratio to standard peptide) was 0.0011.

molecular target: HLA-A*1101 (human); conditions: not given

Going from B1 to B8, the binding affinity ratio (IC50 of standard peptide / IC50 of test peptide) (ratio to standard peptide) falls from 0.0086 to 0.0001.

Compared with B18, B22 is higher in binding affinity ratio (IC50 of standard peptide / IC50 of test peptide) (ratio to standard peptide): 0.0009 for the first, 0.18 for the second.

First: B23
Second: B27
The binding affinity ratio (IC50 of standard peptide / IC50 of test peptide) (ratio to standard peptide) of the first is lower: 0.011 for the first, 0.019 for the second.

Going from B3 to B4, the binding affinity ratio (IC50 of standard peptide / IC50 of test peptide) (ratio to standard peptide) rises from 0.098 to 1.8.

Going from B5 to B28, the binding affinity ratio (IC50 of standard peptide / IC50 of test peptide) (ratio to standard peptide) falls from 0.0033 to 0.0002.

Going from B29 to B34, the binding affinity ratio (IC50 of standard peptide / IC50 of test peptide) (ratio to standard peptide) falls from 0.021 to 0.0005.

Compared with B36, B37 is higher in binding affinity ratio (IC50 of standard peptide / IC50 of test peptide) (ratio to standard peptide): 0.0001 for the first, 0.0025 for the second.

B41 gave a binding affinity ratio (IC50 of standard peptide / IC50 of test peptide) (ratio to standard peptide) of 0.07.

Going from B9 to B25, the binding affinity ratio (IC50 of the standard peptide / IC50 of the test peptide) falls from 0.028 to 0.026.

Binder B42 has a binding affinity ratio (IC50 of the standard peptide / IC50 of the test peptide) of 20.

Going from B10 to B12, the binding affinity ratio (IC50 of standard peptide / IC50 of test peptide) rises from 0.018 to 0.12.

First: B17
Second: B19
The binding affinity ratio (IC50 of standard peptide / IC50 of test peptide) of the first is higher: 0.0051 for the first, 0.0001 for the second.

Compared with B20, B24 is lower in binding affinity ratio (IC50 of standard peptide / IC50 of test peptide): 0.0014 for the first, 0.0012 for the second.

Compared with B26, B30 is higher in binding affinity ratio (IC50 of standard peptide / IC50 of test peptide): 0.0002 for the first, 0.0012 for the second.

Going from B32 to B38, the binding affinity ratio (IC50 of standard peptide / IC50 of test peptide) rises from 0.0021 to 0.37.

Binder B39 has a binding affinity ratio (IC50 of standard peptide / IC50 of test peptide) of 0.0023.

First: B11
Second: B13
The relative binding ratio (IC50 of standard peptide / IC50 of test peptide) of the first is lower: 0.14 for the first, 0.29 for the second.

Going from B14 to B15, the relative binding ratio (IC50 of standard peptide / IC50 of test peptide) rises from 0.0098 to 0.4.

First: B16
Second: B2
The relative binding ratio (IC50 of standard peptide / IC50 of test peptide) of the first is higher: 0.037 for the first, 0.0002 for the second.

Compared with B21, B31 is lower in relative binding ratio (IC50 of standard peptide / IC50 of test peptide): 8.8 for the first, 0.011 for the second.

Going from B33 to B6, the relative binding ratio (IC50 of standard peptide / IC50 of test peptide) falls from 1.5 to 0.0002.

Going from B35 to B40, the relative binding ratio (IC50 of standard peptide / IC50 of test peptide) falls from 0.21 to 0.0001.

B7 showed a relative binding ratio (IC50 of standard peptide / IC50 of test peptide) of 0.018.

same assay, conditions: remark: other sources report otherwise

B43 gave a binding affinity ratio (IC50 of standard peptide / IC50 of test peptide) (ratio to standard peptide) of 0.0002.
